Laboratory results taken from patent US20230277625A1 (SIMCHA IL 18, published 2023).

Tests used:
[1] = biological target: T1, Mouse IL-18BP (amino acids 31-194), biotinylated (mouse, UniProt Q9Z0M9 29-193, biotin on the AviTag (BirA ligase)); experiment: SPR; KD ratio relative to WT IL-18; SPR; ratio normalized to WT
T1 construct: also called mIL-18BP
T1 sequence: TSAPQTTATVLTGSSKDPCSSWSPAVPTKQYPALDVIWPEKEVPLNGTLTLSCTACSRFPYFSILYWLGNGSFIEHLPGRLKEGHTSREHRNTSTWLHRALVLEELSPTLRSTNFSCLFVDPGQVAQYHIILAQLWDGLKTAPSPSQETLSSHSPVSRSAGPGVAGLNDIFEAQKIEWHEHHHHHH
Method in brief: (§1)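 Biotinylated IL-18Rα or IL-18BP captured on a biotin CAP chip (Rmax ~50 RU or ~10 RU respectively), with serial dilutions of IL-18 variants as analyte. Run at 25° C in HBS-P+ (10 mM HEPES pH 7.4, 150 mM NaCl, 0.005% P20); guanidine/NaOH regeneration. KD from 1:1 Langmuir fit.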

[2] = biological target: T1, Mouse IL-18BP (amino acids 31-194), …; experiment: SPR; KD for IL-18BP over KD for IL-18Rα; SPR; ratio of measured KDs
Experimental: (§2) Experiments were conducted using a Biacore T100 and carried out at 25° C. Biotinylated IL-18Rα or IL-18BP were immobilized onto a Biacore biotin capture chip (Series S CAP sensor chip, GE Healthcare) to yield an Rmax of ˜50 RU (IL-18Rα) or ˜10 RU (IL-18BP). Measurements were made with serial dilutions of the IL-18 variants in HEPES buffered Saline-P+buffer (10 mM HEPES pH 7.4, 150 mM NaCl, 0.005% surfactant P20). The surface was regenerated by three 60-sec injections of regeneration buffer (3/4 (v/v) 8M guanidine hydrochloride with 1/4 (v/v) 1M sodium hydroxide). Experiments were performed in multiple channels simultaneously for increased observations. All data were analyzed with the Biacore T100 evaluation software version 2.0 with a 1:1 Langmuir binding model.

[3] = biological target: T1, Mouse IL-18BP (amino acids 31-194), …; experiment: yeast binding isotherms and SPR; members per FIG. 11A legend
[4] = biological target: T1, Mouse IL-18BP (amino acids 31-194), …; experiment: on-yeast binding isotherms; 10 µM used for NBD; on-yeast isotherm; ratio is a bound reckoned from 10 µM put in for NBD
Experimental: (§3) Individual colonies of IL-18 yeast were grown overnight at 30° C. in SDCAA liquid media and induced in SGCAA liquid media for 1 day at 20° C. IL-18 display levels on yeast were verified by flow cytometry using an anti-cMyc tag antibody (anti-myc-PE; Cell Signaling Technologies). Receptor staining with biotinylated IL-18Rα (with or without IL-18R β) or biotinylated IL-18BP was performed in PBS supplemented with 0.5% BSA and 2 mM EDTA (PBE) on ice. All analysis was performed on a Sony SA3800 flow cytometer.

[5] = biological target: T1, Mouse IL-18BP (amino acids 31-194), …; experiment: on-yeast binding isotherms; KD ratio relative to WT IL-18; on-yeast isotherm; normalized ratio from 10 µM put in for NBD
Experimental: as §3

[6] = biological target: T2, Mouse IL-18Rα ectodomain (amino acids 19-329), biotinylated (mouse, UniProt Q61098 19-329, biotin on the AviTag (BirA ligase)); experiment: on-yeast binding isotherm (flow cytometry)
T2 construct: range 19-329; Secreted from Expi293 cells (H7 signal peptide removed); also called mIL-18Rα; mIL18Ra
T2 sequence: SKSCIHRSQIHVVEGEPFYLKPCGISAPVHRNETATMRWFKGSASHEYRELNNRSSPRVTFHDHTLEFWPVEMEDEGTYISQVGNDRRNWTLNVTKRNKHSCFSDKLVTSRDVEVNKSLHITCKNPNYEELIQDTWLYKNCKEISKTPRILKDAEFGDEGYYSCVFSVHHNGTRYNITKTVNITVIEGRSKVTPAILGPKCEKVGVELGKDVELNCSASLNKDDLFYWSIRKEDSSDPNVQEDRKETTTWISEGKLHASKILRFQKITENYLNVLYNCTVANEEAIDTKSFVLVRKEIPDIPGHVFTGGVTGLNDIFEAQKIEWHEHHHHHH
Method in brief: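 Yeast displaying IL-18 variants were grown at 30 °C, then induced 1 day at 20 °C, with display checked by anti-myc-PE. Cells were stained on ice with biotinylated IL-18Rα (± IL-18Rβ) or biotinylated IL-18BP in PBS/0.5% BSA/2 mM EDTA. Binding was read by flow cytometry.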

[7] = biological target: T1, Mouse IL-18BP (amino acids 31-194), …; experiment: SPR (Biacore T100), IL-18BP captured via biotin, IL-18 as analyte; SPR; weak binding, 3.8 µM
Experimental: as §2

[8] = biological target: T2, Mouse IL-18Rα ectodomain (amino acids …); experiment: SPR (Biacore T100), receptor captured via biotin, IL-18 as analyte
Method in brief: as §1

[9] = biological target: T1, Mouse IL-18BP (amino acids 31-194), …; experiment: SPR; KD ratio relative to WT IL-18; SPR; normalized ratio from 30 µM put in for NBD
Experimental: as §2

[10] = biological target: T1, Mouse IL-18BP (amino acids 31-194), …; experiment: SPR; 30 µM used for NBD; SPR; ratio is a bound reckoned from 30 µM put in for NBD
Experimental: as §2

[11] = biological target: T1, Mouse IL-18BP (amino acids 31-194), …; experiment: SPR (Biacore T100), IL-18BP captured via biotin, IL-18 as analyte; SPR; very weak binding, about 15 µM
Experimental: as §2

B1: SEQ ID NO: 60 (murine DR-IL-18 variant mCS1) (ligand)
chain: NFGRLHCTTAVIRNINDQVLFVDKRQPVFEDMTDIDQSASEPQTRLIIYGYADSRVRGKAVTLSVKDSKMSTLSCKNKIISFEEMDPPENIDDIQSDLIFFQKRVPGHNKMEFESSLYEGHFLACQKEDDAFKLILKKKDENGDKSVMFTLTNLHQS
notes: Engineered variant
[1]
  Dissociation Constant Ratio normalized to WT IL-18: 3.84e+06
[2]
  KD ratio IL-18BP/IL-18Rα: 7040
[3]
  Kd: > 1000 nM
[4]
  KD ratio IL-18BP/IL-18Rα: > 935
[5]
  Dissociation Constant Ratio normalized to WT IL-18: > 4960
[6]
  Kd: 10.7 nM
[7]
  Kd: 3800 nM
[8]
  Kd: 0.54 nM

B2: SEQ ID NO: 64 (murine DR-IL-18 variant mE8) (ligand)
chain: NFGRLHCTTAVIRNINDQVLFVDKRQPVFEDMTDIDQSASEPQTRLIIYVYTDGRRRGKAVTLSVKDSKMSTLSCKNKIISFEEMDPPENIDDIQSDLIFFQKKVPGHDKMEFESSLYEGHFLACQKEDDAFKLILKKKDENGDKSVMFTLTNLHQS
notes: Engineered variant
[9]
  Dissociation Constant Ratio normalized to WT IL-18: > 9.68e+06
[10]
  KD ratio IL-18BP/IL-18Rα: > 17800
[4]
  KD ratio IL-18BP/IL-18Rα: > 238
[5]
  Dissociation Constant Ratio normalized to WT IL-18: > 1260
[6]
  Kd: 42 nM
[8]
  Kd: 1.69 nM

B3: SEQ ID NO: 67 (murine DR-IL-18 variant mB1) (ligand)
chain: HFGRLHCTTAVIRNINDQVLFVDKRQPVFEDMTDIDQSASEPQTRLIIYGYADSDARAKAVTLSVKDSKMSTLSCKNKIISFEEMDPPENIDDIQSDLIFFQKSVPGHNKMEFESSLYEGHFLACQKEDDAFKLILKKKDENGDKSVMFTVTNLHQS
notes: Engineered variant
[1]
  Dissociation Constant Ratio normalized to WT IL-18: 1.15e+07
[11]
  Kd: 14700 nM
[2]
  KD ratio IL-18BP/IL-18Rα: 21000
[3]
  Kd: > 1000 nM
[4]
  KD ratio IL-18BP/IL-18Rα: > 559
[5]
  Dissociation Constant Ratio normalized to WT IL-18: > 2960
[6]
  Kd: 17.9 nM
[8]
  Kd: 0.7 nM
